Results published in the supplement of paper PMC9732359.
± gives the uncertainty stated by the source.

Experiment: protein stability index of a GFP-peptide fusion (yeast GPS) (PSI 1-4); higher = more stable; sorted into four equal gates, so the index is relative within each strain
Outline: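 Peptides tiling yeast proteins in 17-residue segments were fused downstream of GFP, with Cherry expressed from the same plasmid. As a pooled library in yeast, mid-log cultures grown in leucine-free medium were sorted into four equal gates by GFP/Cherry fluorescence ratio. Gate plasmids were PCR-amplified and Illumina-sequenced, and barcodes linked reads to strains. Each peptide received a protein stability index equal to the sum of each gate's read frequency times its gate number.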

Row | Sequence | protein stability index (doa10∆) | protein stability index (pdr5∆) | protein stability index (san1∆) | protein stability index (ubr1∆)
1 | PKASSAKFFLNVSDEQL [ITC1] | 3.1 ± 0.094 | 3.18 ± 0.055 | 3.17 ± 0.063 | 3.23 ± 0.075
2 | LWDVATGETYQRFVGHK [ASC1] | 2.98 ± 0.19 | 3.42 ± 0.17 | 1.59 ± 0.17 | 3.4 ± 0.094
3 | DPLNSNIFSEAVKNKYN [PRP28] | 1.81 ± 0.17 | 2.74 ± 0.11 | 3.02 ± 0.09 | 2.92 ± 0.096
4 | IYNELSYELIKEECQIE [CSN9] | 2.47 ± 0.08 | 2.66 ± 0.06 | 2.73 ± 0.057 | 3 ± 0.048
5 | AVGNLGNAVTVTEDGTV [RPL22A] | 1.46 ± 0.062 | 1.96 ± 0.094 | 2.22 ± 0.095 | 1.99 ± 0.094
6 | VSKFYDKINQLSVVKYL [RPN9] | 2.25 ± 0.12 | 1.75 ± 0.083 | 1.31 ± 0.11 | 1.7 ± 0.083
7 | TIEKDKMKIQETISKLN [SMC2] | 1.71 ± 0.058 | 1.69 ± 0.044 | 1.94 ± 0.12 | 1.53 ± 0.038
8 | VVARRSNSANVSSPESE [ITC1] | 3.19 ± 0.05 | 3.35 ± 0.053 | 3.25 ± 0.036 | 3.18 ± 0.035
9 | ATPFRQWFEAHYGQTLG [RPS8A] | 2.436 ± 0.022 | 2.787 ± 0.024 | 2.7 ± 0.021 | 2.573 ± 0.019
10 | TDLSGKETIARVTGGMK [RPS14A] | 3.06 ± 0.087 | 3.12 ± 0.082 | 2.79 ± 0.056 | 2.92 ± 0.061
11 | DRYGNRYFWLDHNGVPF [ITC1] | 2.8 ± 0.094 | 3.18 ± 0.098 | 2.92 ± 0.051 | 2.78 ± 0.082
12 | TGISQKSMSILNSFVND [HTB1] | 2.96 ± 0.06 | 2.94 ± 0.074 | 2.6 ± 0.075 | 2.67 ± 0.087
13 | DDNDVPGPLPDTDSKPS [YLR018C/POM34] | 2.9 ± 0.12 | 2.98 ± 0.084 | 2.76 ± 0.11 | 2.38 ± 0.13
14 | EDIIKRTSPIDNVSNTH [NUT2] | 2.87 ± 0.062 | 2.88 ± 0.06 | 3.01 ± 0.083 | 3.04 ± 0.049
15 | KIHQQLLFKARLQQQQA [GAL11] | 1.3 ± 0.088 | 1.26 ± 0.089 | 1.25 ± 0.15 | 1.33 ± 0.069
16 | LSEEKEVIFTDVLKSQA [MCD1] | 2.92 ± 0.2 | 3.09 ± 0.23 | 3.13 ± 0.12 | 2.77 ± 0.17
17 | IKHKHKKVKLAVLSYYK [RPS31] | 2.23 ± 0.047 | 2.59 ± 0.074 | 2.37 ± 0.073 | 2.25 ± 0.048
18 | LMISPKDEETTEKARLI [RRI2] | 2.8 ± 0.15 | 3.27 ± 0.18 | – | 3.04 ± 0.14
19 | DANLLGAEVLIKGSKLS [COR1] | 2.94 ± 0.072 | 2.85 ± 0.079 | 2.63 ± 0.12 | 2.63 ± 0.042
20 | KETAPVIDTLAAGYGKI [RPL28] | 1.96 ± 0.088 | 2.71 ± 0.12 | 2.13 ± 0.21 | 2.53 ± 0.083
21 | LNECLKTIQINNEKVVQ [YML031W/NDC1] | 1.96 ± 0.12 | 2.27 ± 0.073 | 1.29 ± 0.16 | 1.11 ± 0.1

Row | Sequence | protein stability index (doa10∆) | protein stability index (pdr5∆) | protein stability index (san1∆) | protein stability index (ubr1∆)
22 | DADKLSFNCENFFQAPQ [YML031W/NDC1] | 2.37 ± 0.08 | 2.15 ± 0.058 | 2.36 ± 0.06 | 2.3 ± 0.058
23 | MEADPSLHPLFEQFEKF [RPN9] | 2.82 ± 0.073 | 2.84 ± 0.061 | 2.39 ± 0.1 | 2.55 ± 0.05
24 | NWSKEDLQKLLKGIQEF [SWI3] | 3.27 ± 0.068 | 3.07 ± 0.057 | 3.09 ± 0.05 | 3.33 ± 0.055
25 | YRTPGSSGVLSSNIAGT [SSN2] | 3.35 ± 0.12 | 3.29 ± 0.1 | 3.03 ± 0.14 | 3.38 ± 0.088
26 | KNSSQLLNEWSHNVDEL [RPN5] | 2.75 ± 0.057 | 2.81 ± 0.05 | 2.9 ± 0.045 | 2.64 ± 0.049
27 | DMATGSNDTTAFNDSCV [SRB8] | 2.73 ± 0.05 | 3.07 ± 0.06 | 3.14 ± 0.045 | 2.86 ± 0.037
28 | LAIIGDENPDLLGYTGI [PRE8] | 1.71 ± 0.06 | 1.93 ± 0.081 | 2.73 ± 0.098 | 1.93 ± 0.054
29 | TYGVPGSENKRGSLDSE [NUT1] | 3.31 ± 0.095 | 3.25 ± 0.11 | 3.23 ± 0.15 | 2.99 ± 0.074
30 | VCFNNLVDENTDYLYRR [YCS4] | 2.61 ± 0.067 | 2.56 ± 0.05 | 2.48 ± 0.081 | 2.08 ± 0.037
31 | TKSKEQLASQLVDLKKE [RPL35A] | – | – | 3.12 ± 0.098 | 3.2 ± 0.17
32 | HLAVVCVDDNSKISFID [SSN2] | – | 2.84 ± 0.17 | – | 3.67 ± 0.16
33 | EQEQQQQQIIKIRITLT [RPS20] | 2.77 ± 0.057 | 2.86 ± 0.06 | 3.03 ± 0.043 | 3.09 ± 0.061
34 | NLLQISAAELERLDKDK [SNF5] | 2.5 ± 0.12 | 2.89 ± 0.13 | 2.91 ± 0.18 | –
35 | VGCKNLERLTLVFCKHI [GRR1] | 1.52 ± 0.062 | 1.91 ± 0.077 | 1.25 ± 0.11 | 1.63 ± 0.084
36 | FSQKEMAFNLLGLLTPE [FAS2] | 2.52 ± 0.077 | 2.32 ± 0.072 | 2.18 ± 0.12 | 2.42 ± 0.064
37 | TRKILEILNECHDELKA [MED4] | 2.04 ± 0.071 | 2.5 ± 0.13 | 2.44 ± 0.085 | 2.71 ± 0.097
38 | HQQQLQQPHYIQRTRER [DSN1] | 2.95 ± 0.055 | 3.08 ± 0.042 | 2.92 ± 0.037 | 2.84 ± 0.042
39 | ERKQIHEFKLIVGKKIQ [GRR1] | 2.82 ± 0.045 | 2.58 ± 0.065 | 3.03 ± 0.06 | 3.13 ± 0.058
40 | SHINTNVGDNNSTASSS [ARP7] | 2.68 ± 0.095 | 3.02 ± 0.067 | 2.9 ± 0.062 | 2.84 ± 0.066
41 | KTRGPFHFRAPSRIFYK [RPL16A] | 2.99 ± 0.08 | 2.6 ± 0.062 | 2.56 ± 0.061 | 2.77 ± 0.057
42 | NHGGSLGKYDLTVIEKL [SRP68] | – | – | 3.53 ± 0.14 | 3.41 ± 0.29
